Assay results: the supplement of paper PMC10567573

Assay: protein stability index of a GFP-peptide fusion (GPS, HEK-293T) (PSI 1-6); higher = more stable
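Also: lentivirally expressed fusions sorted by FACS into six bins by GFP to DsRed ratio, PSI derived from sequencing read proportions per bin multiplied by bin number.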

B1: GLTSCR2 WT (peptide)
chain: LARRRRRRQARREAEADKPRRLGR
Question: For B1, which protein stability index (parent: IOH6410_65, c terminus: a fixed tail appended) is on record?
Answer: 4.75

B2: ZNF263 WT (peptide)
chain: FAHSSNLLRHQRIHTGERPYKCPE
Question: For B2, which protein stability index (parent: IOH6312_84, c terminus: a fixed tail appended) is on record?
Answer: 2.34

B3: TRAF3IP2 WT (peptide)
chain: PRPPSNPPARGTLKTSNLPEELRK
Question: With B3 as the protein, how does the protein stability index (parent: IOH5394_64, c terminus: a fixed tail appended) read?
Answer: 4.55

B4: GMCL1 WT (peptide)
chain: RPDTGDDAAGHGFCYCAGSHKRKR
Question: Which protein stability index (parent: IOH5876_6, c terminus: a fixed tail appended) does the source give for B4 here?
Answer: 2.92

B5: KRT15 WT (peptide)
chain: SNFHINVEESVDGQVVSSHKREI
Question: For B5, which protein stability index (parent: IOH5303_75, c terminus: native) is on record?
Answer: 2.11

B6: CDC25A WT (peptide)
chain: QLIDPDENKENEAFEFKKPVRPVS
Question: For B6, which protein stability index (parent: IOH5852_23, c terminus: a fixed tail appended) is on record?
Answer: 3.49

B7: ZNF263 WT (peptide)
chain: QPKKLHLCPLCGKNFSNNSNLIRH
Question: For B7, which protein stability index (parent: IOH6312_63, c terminus: a fixed tail appended) is on record?
Answer: 2.55

B8: TRAF3IP2 WT (peptide)
chain: KQGSMNFRFIPVLFPNAKKEHVPT
Question: Which protein stability index (parent: IOH5394_84, c terminus: a fixed tail appended) does the source give for B8 here?
Answer: 1.99

B9: ZNF263 WT (peptide)
chain: FGGNPRFLSLHRAHLGEEAHKCLE
Question: With B9 as the protein, how does the protein stability index (parent: IOH6312_70, c terminus: a fixed tail appended) read?
Answer: 1.85

B10: TMEM175 WT (peptide)
chain: ALLHQAETLQPSVWFGGREHVLMF
Question: Which protein stability index (parent: IOH5167_67, c terminus: a fixed tail appended) does the source give for B10 here?
Answer: 2.09

B11: CLINT1 WT (peptide)
chain: VVTSAREHIYDLRSLENYHFVDEH
Question: For B11, which protein stability index (parent: IOH5634_17, c terminus: a fixed tail appended) is on record?
Answer: 2.76

B12: TRAF3IP2 WT (peptide)
chain: APWNYHYHCPGSPDHQVPYGHDYP
Question: Which protein stability index (parent: IOH5394_44, c terminus: a fixed tail appended) does the source give for B12 here?
Answer: 1.94

B13: GLTSCR2 WT (peptide)
chain: FQRRNMIEPRERAKFKRKYKVKLV
Question: Which protein stability index (parent: IOH6410_75, c terminus: a fixed tail appended) does the source give for B13 here?
Answer: 2.25

B14: TRIM39 WT (peptide)
chain: CKACITRWWEDLERDFPCPVCRKT
Question: For B14, which protein stability index (parent: IOH5913_9, c terminus: a fixed tail appended) is on record?
Answer: 3.85

B15: CLPTM1 WT (peptide)
chain: LGCYAVYSLLYLEHKGWYSWVLSM
Question: With B15 as the protein, how does the protein stability index (parent: IOH5653_82, c terminus: a fixed tail appended) read?
Answer: 2.95

B16: KLHL12 WT (peptide)
chain: SMTTPRCYVGATVLRGRLYAIAGY
Question: Which protein stability index (parent: IOH6063_85, c terminus: a fixed tail appended) does the source give for B16 here?
Answer: 2.41

B17: CDC25A WT (peptide)
chain: KKFRTKSRTWAGEKSKREMYSRLK
Question: With B17 as the protein, how does the protein stability index (parent: IOH5852_84, c terminus: a fixed tail appended) read?
Answer: 2.82

B18: ZNF263 WT (peptide)
chain: EKPYKCPECGEIFAHSSNLLRHQR
Question: With B18 as the protein, how does the protein stability index (parent: IOH6312_82, c terminus: a fixed tail appended) read?
Answer: 2.43

B19: KLHL12 WT (peptide)
chain: REESLPNLLQYVRMPLLTPRYITD
Question: With B19 as the protein, how does the protein stability index (parent: IOH6063_36, c terminus: a fixed tail appended) read?
Answer: 2.48

B20: UBE2R2 WT (peptide)
chain: DPQSGELPSERWNPTQNVRTILLS
Question: With B20 as the protein, how does the protein stability index (parent: IOH5652_18, c terminus: a fixed tail appended) read?
Answer: 3.45

B21: TRIM39 WT (peptide)
chain: YPCVLATEGFTSGRHYWEVEVGDK
Question: With B21 as the protein, how does the protein stability index (parent: IOH5913_59, c terminus: a fixed tail appended) read?
Answer: 1.8

B22: GMCL1 WT (peptide)
chain: FCYCAGSHKRKRSSGSFCYCHPDS
Question: With B22 as the protein, how does the protein stability index (parent: IOH5876_8, c terminus: a fixed tail appended) read?
Answer: 1.91

B23: TMEM175 WT (peptide)
chain: SCTIIFLASIFQLAMWTTALLHQA
Question: Which protein stability index (parent: IOH5167_64, c terminus: a fixed tail appended) does the source give for B23 here?
Answer: 2.71

B24: ZNF263 WT (peptide)
chain: PEASHLRFRRFRFQEAAGPREALS
Question: With B24 as the protein, how does the protein stability index (parent: IOH6312_7, c terminus: a fixed tail appended) read?
Answer: 2.65

B25: BCL2L13 WT (peptide)
chain: YIIQQGGWGTVFSLESEEEEYPGI
Question: Which protein stability index (parent: IOH5956_33, c terminus: a fixed tail appended) does the source give for B25 here?
Answer: 1.93

B26: ZNF263 WT (peptide)
chain: CSECGESFSRSSRLMSHQRTHTG
Question: For B26, which protein stability index (parent: IOH6312_114, c terminus: native) is on record?
Answer: 2.98

B27: KRT15 WT (peptide)
chain: FGGGSTRGGSLLAGGGGFGGGSLS
Question: With B27 as the protein, how does the protein stability index (parent: IOH5303_3, c terminus: a fixed tail appended) read?
Answer: 1.81

B28: TRAF3IP2 WT (peptide)
chain: YGHDYPRAAYQQVIQPALPGQPLP
Question: Which protein stability index (parent: IOH5394_47, c terminus: a fixed tail appended) does the source give for B28 here?
Answer: 1.96

B29: ZNF263 WT (peptide)
chain: KPYKCTLCGENFSHRSNLIRHQRI
Question: Which protein stability index (parent: IOH6312_101, c terminus: a fixed tail appended) does the source give for B29 here?
Answer: 2.32

B30: CDC25B WT (peptide)
chain: FVDILESDLKDDDAVPPGMESLIS
Question: Which protein stability index (parent: IOH6456_46, c terminus: a fixed tail appended) does the source give for B30 here?
Answer: 3.07

B31: TRAF3IP2 WT (peptide)
chain: FMEKRNQWLVSQLSAASPDTGHDS
Question: With B31 as the protein, how does the protein stability index (parent: IOH5394_23, c terminus: a fixed tail appended) read?
Answer: 2.4

B32: FAM164C WT (peptide)
chain: YPHCTGISQQDPESDSQGQGNGLF
Question: With B32 as the protein, how does the protein stability index (parent: IOH5453_15, c terminus: a fixed tail appended) read?
Answer: 3.84

B33: S100A14 WT (peptide)
chain: KIANLGSCNDSKLEFRSFWELIGE
Question: With B33 as the protein, how does the protein stability index (parent: IOH5597_12, c terminus: a fixed tail appended) read?
Answer: 2.01

B34: NCF4 WT (peptide)
chain: FVKILKDFPEEDDPTNWLRCYYYE
Question: With B34 as the protein, how does the protein stability index (parent: IOH5398_38, c terminus: a fixed tail appended) read?
Answer: 2.09

B35: NCF4 WT (peptide)
chain: FGPDSKSSALACTLPTLPAKVYVG
Question: With B35 as the protein, how does the protein stability index (parent: IOH5398_13, c terminus: a fixed tail appended) read?
Answer: 2.21

B36: BCL2L13 WT (peptide)
chain: QSLDQEILLKVKTEIEEELKSLDK
Question: For B36, which protein stability index (parent: IOH5956_9, c terminus: a fixed tail appended) is on record?
Answer: 4.89

B37: TRIM39 WT (peptide)
chain: ERDFPCPVCRKTSRYRSLRPNRQL
Question: Which protein stability index (parent: IOH5913_11, c terminus: a fixed tail appended) does the source give for B37 here?
Answer: 2.25

B38: TRAF3IP2 WT (peptide)
chain: PGQPLPGASVRGLHPVQKVILNYP
Question: For B38, which protein stability index (parent: IOH5394_50, c terminus: a fixed tail appended) is on record?
Answer: 3.05

B39: TRAF3IP2 WT (peptide)
chain: KEHVPTWLQNTHVYSWPKNKKNIL
Question: Which protein stability index (parent: IOH5394_87, c terminus: a fixed tail appended) does the source give for B39 here?
Answer: 2.59

B40: ZNF263 WT (peptide)
chain: LLRHQRIHTGERPYKCPECGKSFS
Question: Which protein stability index (parent: IOH6312_85, c terminus: a fixed tail appended) does the source give for B40 here?
Answer: 2.03

B41: BCL2L13 WT (peptide)
chain: MASSSTVPLGFHYETKYVVLSYLG
Question: For B41, which protein stability index (parent: IOH5956_1, c terminus: a fixed tail appended) is on record?
Answer: 2.43

B42: ALKBH7 WT (peptide)
chain: SVICRSLPEGMGPGESGQPPPAC
Question: For B42, which protein stability index (parent: IOH5568_34, c terminus: native) is on record?
Answer: 1.99

B43: ZNF263 WT (peptide)
chain: HLTRHQRTHTGEKPYKCTLCGENF
Question: For B43, which protein stability index (parent: IOH6312_99, c terminus: a fixed tail appended) is on record?
Answer: 2.9

B44: GLTSCR2 WT (peptide)
chain: YNPSFEDHQTLLSAAHEVELQRQK
Question: For B44, which protein stability index (parent: IOH6410_42, c terminus: a fixed tail appended) is on record?
Answer: 3.61

B45: ZNF263 WT (peptide)
chain: RTHTGEKPYKCTLCGENFSHRSNL
Question: With B45 as the protein, how does the protein stability index (parent: IOH6312_100, c terminus: a fixed tail appended) read?
Answer: 2.17

B46: ZNF263 WT (peptide)
chain: QRTHTGEKPYKCPECGEIFAHSSN
Question: For B46, which protein stability index (parent: IOH6312_81, c terminus: a fixed tail appended) is on record?
Answer: 3.1

B47: CLPTM1 WT (peptide)
chain: MNLHVYISEHEHFTDFNATSALFW
Question: Which protein stability index (parent: IOH5653_18, c terminus: a fixed tail appended) does the source give for B47 here?
Answer: 2.74

B48: PDZK1 WT (peptide)
chain: RETASLKLLPHQPRIVEMKKGSNG
Question: Which protein stability index (parent: IOH5807_39, c terminus: a fixed tail appended) does the source give for B48 here?
Answer: 3.37

B49: ZNF263 WT (peptide)
chain: VPGTQVGQGGKLWDPSVQSCKEGL
Question: Which protein stability index (parent: IOH6312_45, c terminus: a fixed tail appended) does the source give for B49 here?
Answer: 4.2

B50: KLHL12 WT (peptide)
chain: LDYTADEDGVWYSVAPMNVRRGLA
Question: For B50, which protein stability index (parent: IOH6063_59, c terminus: a fixed tail appended) is on record?
Answer: 1.98

B51: CDC25A WT (peptide)
chain: TVAGKHQDLKYISPEIMASVLNGK
Question: Which protein stability index (parent: IOH5852_59, c terminus: a fixed tail appended) does the source give for B51 here?
Answer: 3.04

B52: CDC25A WT (peptide)
chain: KPIVPTDGKRVIVVFHCEFSSERG
Question: With B52 as the protein, how does the protein stability index (parent: IOH5852_70, c terminus: a fixed tail appended) read?
Answer: 2.59

B53: PDZK1 WT (peptide)
chain: FQAKKIPIVSSLADPLDTPPDSKE
Question: With B53 as the protein, how does the protein stability index (parent: IOH5807_78, c terminus: a fixed tail appended) read?
Answer: 3.78
